Biological target: mCherry-CARACB(G15V) (barley (Hordeum vulgare))
Experiment: FRET or BRET; FLIM-FRET in barley epidermal cells transiently co-expressing meGFP-RIC157 (donor) and mCherry-RACB forms (acceptor) after particle bombardment; meGFP lifetime measured at the equatorial plane; at least 10 cells per interaction in two replicates

meGFP fluorescence lifetime: 2.2 ns
Substance: meGFP-RIC157 (natural protein)

Source: PMC10090020
